Experimental data: patent US20180298083A1 (US Dept. of Health and Human Services, published 2018)
Where two headings read alike, the source gives them in different places.

Legend:
[1] = molecular target: T1, SSB, Sjogren syndrome antigen B (Homo sapiens (Human), UniProt P05455 1-408); assay: Luminex AtheNA Multi-Lyte ANA test
T1 construct: also called SS-B/La
T1 sequence: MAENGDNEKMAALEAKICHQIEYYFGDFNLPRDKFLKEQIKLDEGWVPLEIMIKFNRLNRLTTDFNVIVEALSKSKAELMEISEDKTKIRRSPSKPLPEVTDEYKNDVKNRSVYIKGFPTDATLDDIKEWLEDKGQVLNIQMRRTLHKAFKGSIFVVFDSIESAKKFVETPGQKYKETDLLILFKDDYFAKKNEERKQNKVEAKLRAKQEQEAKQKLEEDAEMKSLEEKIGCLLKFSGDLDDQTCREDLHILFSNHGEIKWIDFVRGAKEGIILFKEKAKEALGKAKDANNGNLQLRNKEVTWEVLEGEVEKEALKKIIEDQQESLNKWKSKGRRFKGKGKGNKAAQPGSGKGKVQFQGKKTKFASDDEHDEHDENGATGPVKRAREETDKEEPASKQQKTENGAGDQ

Histone = assay: Luminex AtheNA Multi-Lyte ANA test
[2] = molecular target: T2, SSA, Sjogren's syndrome antigen A; assay: Luminex AtheNA Multi-Lyte ANA test
T2 construct: also called SSA/Ro

[3] = molecular target: T1, SSB, Sjogren syndrome antigen B; assay: Luminex AtheNA Multi-Lyte ANA test; remark: listed apart in the source
Sm, Smith antigen = assay: Luminex AtheNA Multi-Lyte ANA test
RNP, ribonucleoprotein = assay: Luminex AtheNA Multi-Lyte ANA test
Jo1 antigen = molecular target: T3, Jo1 antigen; assay: Luminex AtheNA Multi-Lyte ANA test
T3 construct: also called Jol

CentrB, centromere B = assay: Luminex AtheNA Multi-Lyte ANA test
monomeric gp120^JRCSF = molecular target: T4, monomeric gp120^JRCSF (HIV-1 strain JRCSF, UniProt P20871 32-503); assay: gp120 capture ELISA
T4 construct: domain: gp120

CAAN.A2 [4] = molecular target: CAAN.A2 (HIV-1); assay: cell-based or functional assay
CAAN.A2 [5] = molecular target: CAAN.A2 (HIV-1); assay: cell-based or functional assay; remark: listed apart in the source
CAAN.A2 [6] = molecular target: CAAN.A2 (HIV-1); assay: cell-based or functional assay; remark: listed apart in the source

Chain of CentrB, centromere B (P07199 2-599): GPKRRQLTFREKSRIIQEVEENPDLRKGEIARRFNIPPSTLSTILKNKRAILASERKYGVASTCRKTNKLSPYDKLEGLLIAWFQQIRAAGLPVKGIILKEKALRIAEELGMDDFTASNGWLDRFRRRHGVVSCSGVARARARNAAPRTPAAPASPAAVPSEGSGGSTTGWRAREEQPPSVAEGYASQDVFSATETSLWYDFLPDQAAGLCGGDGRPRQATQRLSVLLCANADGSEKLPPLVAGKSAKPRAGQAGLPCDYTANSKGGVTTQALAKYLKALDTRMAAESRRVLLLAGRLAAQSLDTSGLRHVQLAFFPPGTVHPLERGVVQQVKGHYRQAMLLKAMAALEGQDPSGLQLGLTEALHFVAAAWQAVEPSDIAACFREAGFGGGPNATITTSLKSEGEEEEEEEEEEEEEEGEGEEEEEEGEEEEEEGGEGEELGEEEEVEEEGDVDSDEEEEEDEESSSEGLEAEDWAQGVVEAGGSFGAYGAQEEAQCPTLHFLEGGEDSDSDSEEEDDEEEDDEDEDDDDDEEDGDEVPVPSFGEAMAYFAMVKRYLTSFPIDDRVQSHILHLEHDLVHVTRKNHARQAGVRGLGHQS

B1: N6 antibody (antibody, V domains shown)
VH: RAHLVQSGTAMKKPGASVRVSCQTSGYTFTAHILFWFRQAPGRGLEWVGWIKPQYGAVNFGGGFRDRVTLTRDVYREIAYMDIRGLKPDDTAVYYCARDRSYGDSSWALDAWGQGTTVVVSA
VL: YIHVTQSPSSLSVSIGDRVTINCQTSQGVGSDLHWYQHKPGRAPKLLIHHTSSVEDGVPSRFSGSGFHTSFNLTISDLQADDIATYYCQVLQFFGRGSRLHIK
notes: also called N6 mAb
**Q.** What does the source list for B1?
**A.** binding result [1]: no binding (tested: 50 µg/ml); Luminex reactivity (unit not given) (Histone): 50.6; Luminex reactivity (unit not given) [2]: 36.4; Luminex reactivity (unit not given) [3]: 100; Luminex reactivity (unit not given) (Sm, Smith antigen): 5.2; Luminex reactivity (unit not given) (RNP, ribonucleoprotein): 16.8; Luminex reactivity (unit not given) (Jo1 antigen): 56.4; Luminex reactivity (unit not given) (CentrB, centromere B): 22

B2: VRC-PG04 (antibody, V domains shown)
VH: QVQLVQSGSGVKKPGASVRVSCWTSEDIFERTELIHWVRQAPGQGLEWIGWVKTVTGAVNFGSPDFRQRVSLTRDRDLFTAHMDIRGLTQGDTATYFCARQKFYTGGQGWYFDLWGRGTLIVVSS
VL: EIVLTQSPGTLSLSPGETASLSCTAASYGHMTWYQKKPGQPPKLLIFATSKRASGIPDRFSGSQFGKQYTLTITRMEPEDFARYYCQQLEFFGQGTRLEIR
**Q.** For B2, which “Binding affinity relative to WT (%)” value (monomeric gp120^JRCSF) is on record?
**A.** 100%

B3: VRC01 (antibody, V domains shown)
VH: QVQLVQSGGQMKKPGESMRISCRASGYEFIDCTLNWIRLAPGKRPEWMGWLKPRGGAVNYARPLQGRVTMTRDVYSDTAFLELRSLTVDDTAVYFCTRGKNCDYNWDFEHWGRGTPVIVSS
VL: EIVLTQSPGTLSLSPGETAIISCRTSQYGSLAWYQQRPGQAPRLVIYSGSTRAAGIPDRFSGSRWGPDYNLTISNLESGDFGVYYCQQYEFFGQGTKVQVDI
**Q.** What does the source list for B3?
**A.** neutralisation IC50 (CAAN.A2 [4]): 1.06 µg/mL; neutralisation IC50 (CAAN.A2 [5]): 1.06 µg/mL; neutralisation IC50 (CAAN.A2 [6]): 1.06 µg/mL
